Values of other authors, collected in publication PMC5830169.
pKd: −log10 of the molar value.

Target: rhodopsin (UniProt P02699)
Chain of UniProt P02699 (P02699 whole entry): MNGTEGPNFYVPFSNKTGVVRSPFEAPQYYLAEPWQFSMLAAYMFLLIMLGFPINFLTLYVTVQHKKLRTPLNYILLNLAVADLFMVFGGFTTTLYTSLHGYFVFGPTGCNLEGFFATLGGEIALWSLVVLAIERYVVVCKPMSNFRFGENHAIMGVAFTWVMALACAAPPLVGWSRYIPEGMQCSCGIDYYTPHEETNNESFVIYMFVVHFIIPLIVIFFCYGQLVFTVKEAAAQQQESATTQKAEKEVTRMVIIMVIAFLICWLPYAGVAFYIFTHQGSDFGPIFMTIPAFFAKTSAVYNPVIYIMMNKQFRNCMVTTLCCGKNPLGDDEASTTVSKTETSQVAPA

pKd: 7.30
Substance: visual arrestin (from UniProt P10523)
